The values that follow come from publication PMC3936753.

The target in data set [1] is T1, MBP-VP5 (Helicoverpa armigera cypovirus 5 …, UniProt Q3LTV8 1-380). The data set is described as follows: EMSA; 10 pmol protein, 0.1 pmol probe; 25 mM HEPES-KOH pH 7.5, 100 mM NaCl, 10 ul, 30 min at room temperature; 2% agarose gel.
The target in data set [2] is T1, MBP-VP5. The data set is described as follows: competition; vs HEX-RNA1, 5-100 fold excess, 2 pmol protein; 25 mM HEPES-KOH pH 7.5, 100 mM NaCl, 10 ul, 30 min at room temperature; 2% agarose gel.
Data set [3] deals with T1, MBP-VP5. The data set is described as follows: EMSA; 10 pmol protein, 0.1 pmol probe; Hill coefficient ~1.499 (0.05-0.16 uM) and ~4.972 (0.2-0.48 uM); 25 mM HEPES-KOH pH 7.5, 100 mM NaCl, 10 ul, 30 min at room temperature; 2% agarose gel.

For GTGTAGTAATCGTCCATTGTGTCT (ssDNA) [DNA1], the binding result in the data set with MBP-VP5 [1] was “binds”. In the case of GUGUAGUAAUCGUCCAUUGUGUCU (ssRNA) [RNA10], in the data set with MBP-VP5 [2], the binding result is “binds”. As to GUGUAGUAAUCGUCCAUUGUGUCU (ssRNA) [RNA1], the binding result with MBP-VP5 [3] is reported as “binds”.

B1: RNA1/RNA2 (dsRNA)
RNA 1: GUGUAGUAAUCGUCCAUUGUGUCU
RNA 2: AGACACAAUGGACGAUUACUACAC
B1: in the data set with MBP-VP5 [1], the binding result was “binds”.
